{"source": "paper doi:10.1101/2023.01.20.524915", "about": "(bioRxiv, 2023)", "proteins": {"B1": {"name": "human DNA polymerase theta helicase domain (Polθ-HLD), residues 67-940 (domain or fragment, UniProt O75417 67-940, looked up)", "chain": "DKLLLANWGLPKAVLEKYHSFGVKKMFEWQAECLLLGQVLEGKNLVYSAPTSAGKTLVAELLILKRVLEMRKKALFILPFVSVAKEKKYYLQSLFQEVGIKVDGYMGSTSPSRHFSSLDIAVCTIERANGLINRLIEENKMDLLGMVVVDELHMLGDSHRGYLLELLLTKICYITRKSASCQADLASSLSNAVQIVGMSATLPNLELVASWLNAELYHTDFRPVPLLESVKVGNSIYDSSMKLVREFEPMLQVKGDEDHVVSLCYETICDNHSVLLFCPSKKWCEKLADIIAREFYNLHHQAEGLVKPSECPPVILEQKELLEVMDQLRRLPSGLDSVLQKTVPWGVAFHHAGLTFEERDIIEGAFRQGLIRVLAATSTLSSGVNLPARRVIIRTPIFGGRPLDILTYKQMVGRAGRKGVDTVGESILICKNSEKSKGIALLQGSLKPVRSCLQRREGEEVTGSMIRAILEIIVGGVASTSQDMHTYAACTFLAASMKEGKQGIQRNQESVQLGAIEACVMWLLENEFIQSTEASDGTEGKVYHPTHLGSATLSSSLSPADTLDIFADLQRAMKGFVLENDLHILYLVTPMFEDWTTIDWYRFFCLWEKLPTSMKRVAELVGVEEGFLARCVKGKVVARTERQHRQMAIHKRFFTSLVLLDLISEVPLREINQKYGCNRGQIQSLQQSAAVYAGMITVFSNRLGWHNMELLLSQFQKRLTFGIQRELCDLVRVSLLNAQRARVLYASGFHTVADLARANIVEVEVILKNAVPFKSARKAVDEEEEAVEERRNMRTIWVTGRKGLTEREAAALIVEEARMILQQDLVEMGVQWNPCALLHSSTCSLTHSESEVKEHTFISQTKSSYKKLTSKNKS"}}, "target": "the molecule itself", "test": "cryo-EM structure"}
{"protein": "B1", "values": [{"measurement": "stoichiometry N", "value": 2}]}
